Measured values published in patent US20190315845A1 (ANNEXON, published 2019).

Tests used:
human C1q [1] = biological target: T1, human C1q (human, UniProt P02745 23-245; P02746 28-253; P02747 29-245); assay: SPR Biacore T200, heterogeneous ligand model, kd2; hC1q immobilised (ligand), Fab analyte
T1 construct: Purified human C1q protein (plate-coated in ELISA, ligand or analyte in SPR, in human serum in CH50); also called hC1q; complement factor C1q
Protocol: (§1) Due to concerns about stability, two chips were prepared; one with hC1q and mC1q (Chip All) as ligands and one with IgG and Fab (Chip A13) as ligands Immobilization for m/h C1q was carried out at a protein concentration of 5 μg/ml in 10 mM acetate buffer pH 5.5, whereas immobilization for IgG and Fab was carried out at a protein concentration of 0.5-2 μg/ml in 10 mM acetate buffer pH 5.0, both on a CMS Series S sensor chip (Biacore).
(§2) The kinetic parameters for both the IgG and Fab interactions with hC1q were in the low picomolar range (Table 6 for 1-to-1 model and Table 7 for the heterogeneous model). In order to avoid avidity, hC1q was initially used as the ligand, however this limited the analysis to single cycle kinetics and the use of more complex models, for example, heterogeneous ligand binding models (Equation 3), that may represent the different forms of hC1q structure that were associated with chemical coupling of a multi-subunit protein to a surface. When hC1q was used as the analyte both IgG and Fab were immobilized at the lowest concentrations possible to avoid avidity. The data was analyzed using a 1-to-1 model and a more complex bivalent analyte model (Equation 4). […] It should be noted that the dissociation rate was too slow to measure accurately with this technique. […]

human C1q [2] = biological target: T1, human C1q; assay: SPR Biacore T200, 1:1 model; Fab immobilised (ligand), hC1q analyte
human C1q [3] = biological target: T1, human C1q; assay: SPR Biacore T200, heterogeneous ligand model, ka1; hC1q immobilised (ligand), Fab analyte
Protocol: as §1, §2

mouse C1q [4] = biological target: T2, mouse C1q (mouse, UniProt P98086 23-245; P14106 26-253; Q02105 30-246); assay: SPR Biacore T200, 1:1 model; Fab immobilised (ligand), mC1q analyte; analysis 2
T2 construct: Purified mouse C1q protein; also called mC1q
T2 sequence (P98086 23-245 limits assumed, chain 1 of 3): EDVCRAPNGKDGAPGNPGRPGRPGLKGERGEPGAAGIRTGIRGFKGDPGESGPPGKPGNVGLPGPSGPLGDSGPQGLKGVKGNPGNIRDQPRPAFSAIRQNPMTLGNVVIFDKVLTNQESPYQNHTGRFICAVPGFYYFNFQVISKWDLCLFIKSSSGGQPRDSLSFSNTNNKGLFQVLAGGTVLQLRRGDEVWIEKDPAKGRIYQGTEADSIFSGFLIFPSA
T2 sequence (P14106 26-253 limits assumed, chain 2 of 3): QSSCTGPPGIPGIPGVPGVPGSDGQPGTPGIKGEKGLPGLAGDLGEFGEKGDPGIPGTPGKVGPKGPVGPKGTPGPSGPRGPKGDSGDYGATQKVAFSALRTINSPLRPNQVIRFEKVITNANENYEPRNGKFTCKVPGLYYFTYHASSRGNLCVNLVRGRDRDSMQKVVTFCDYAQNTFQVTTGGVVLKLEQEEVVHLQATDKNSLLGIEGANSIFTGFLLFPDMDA
T2 sequence (Q02105 30-246 limits assumed, chain 3 of 3): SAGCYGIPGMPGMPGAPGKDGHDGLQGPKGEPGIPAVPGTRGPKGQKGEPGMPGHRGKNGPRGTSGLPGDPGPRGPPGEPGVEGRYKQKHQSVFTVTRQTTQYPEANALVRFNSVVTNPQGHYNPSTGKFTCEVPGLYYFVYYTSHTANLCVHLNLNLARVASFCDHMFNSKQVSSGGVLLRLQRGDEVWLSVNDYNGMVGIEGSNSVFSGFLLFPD

human C1q [5] = biological target: T1, human C1q; assay: SPR Biacore T200, 1:1 model, single cycle kinetics; hC1q immobilised (ligand), Fab analyte
human C1q [6] = biological target: T1, human C1q; assay: SPR Biacore T200, heterogeneous ligand model, ka2; hC1q immobilised (ligand), Fab analyte
Protocol: as §1, §2

mouse C1q [7] = biological target: T2, mouse C1q; assay: SPR Biacore T200, 1:1 model; Fab immobilised (ligand), mC1q analyte; analysis 1
mouse C1q [8] = biological target: T2, mouse C1q; assay: SPR Biacore T200, 1:1 model; Fab immobilised (ligand), mC1q analyte; mean of 2 independent analyses
Protocol: as §1
(§3) The association phase was monitored for 500 seconds to allow some of the higher concentrations of analyte to reach steady state. In order to observe a sufficient signal decrease (>10%) during the dissociation phase of the kinetic cycle, dissociation was measured for up to 10,800 seconds to allow sufficient dissociation to occur for accurate assessment of the kinetics. The signal from the reference channel Fₑ1 was subtracted from that of Fₑ2, Fₑ3, and Fₑ4.

mouse C1q [9] = biological target: T2, mouse C1q; assay: SPR Biacore T200, 1:1 model; mC1q immobilised (ligand), Fab analyte; analysis 1
human C1q [10] = biological target: T1, human C1q; assay: SPR Biacore T200, heterogeneous ligand model, KD2; hC1q immobilised (ligand), Fab analyte
Protocol: as §1, §2

mouse C1q [11] = biological target: T2, mouse C1q; assay: SPR Biacore T200, 1:1 model; mC1q immobilised (ligand), Fab analyte; mean of 2 independent analyses
Protocol: as §1
(§4) Both C1q complexes were immobilized based on concerns over avidity (i.e., two immobilized antibodies binding C1q), and the very high levels of NSB observed using mC1q and to a lesser extent hC1q to the CM5 surface (charge mediated estimated C1q: pI 8-9). Single cycle kinetics (SCK) were used initially to derive estimated kinetic constants due to uncertainty over the stability of the C1q complex and the regeneration conditions. Full kinetic analysis was performed after SCK. The ligand stability control injections performed during the kinetic run indicated either the regeneration conditions used were inactivating the ligand, or the ligand itself was unstable at 25° C. during the 48 hours required for kinetic analysis.
as §3

mouse C1q [12] = biological target: T2, mouse C1q; assay: SPR Biacore T200, 1:1 model; mC1q immobilised (ligand), Fab analyte; analysis 2
Protocol: as §1, §4, §3

human C1q [13] = biological target: T1, human C1q; assay: SPR Biacore T200, heterogeneous ligand model, KD1; hC1q immobilised (ligand), Fab analyte
Protocol: as §1, §2

human C1q [14] = biological target: T1, human C1q; assay: SPR Biacore T200, heterogeneous ligand model, kd1; hC1q immobilised (ligand), Fab analyte

T1 sequence (P02745 23-245 limits assumed, chain 1 of 3): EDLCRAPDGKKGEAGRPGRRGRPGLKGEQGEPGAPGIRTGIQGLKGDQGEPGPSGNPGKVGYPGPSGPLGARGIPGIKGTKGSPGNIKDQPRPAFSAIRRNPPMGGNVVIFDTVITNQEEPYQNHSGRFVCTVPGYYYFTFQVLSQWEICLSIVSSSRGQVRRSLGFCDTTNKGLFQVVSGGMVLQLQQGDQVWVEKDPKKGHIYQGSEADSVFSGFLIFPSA
T1 sequence (P02746 28-253 limits assumed, chain 2 of 3): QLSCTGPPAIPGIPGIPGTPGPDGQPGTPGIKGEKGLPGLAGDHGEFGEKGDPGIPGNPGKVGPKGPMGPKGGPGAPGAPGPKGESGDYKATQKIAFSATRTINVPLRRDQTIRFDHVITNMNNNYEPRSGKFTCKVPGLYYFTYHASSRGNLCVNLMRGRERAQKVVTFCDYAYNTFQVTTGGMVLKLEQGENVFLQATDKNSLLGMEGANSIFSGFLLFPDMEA
T1 sequence (P02747 29-245 limits assumed, chain 3 of 3): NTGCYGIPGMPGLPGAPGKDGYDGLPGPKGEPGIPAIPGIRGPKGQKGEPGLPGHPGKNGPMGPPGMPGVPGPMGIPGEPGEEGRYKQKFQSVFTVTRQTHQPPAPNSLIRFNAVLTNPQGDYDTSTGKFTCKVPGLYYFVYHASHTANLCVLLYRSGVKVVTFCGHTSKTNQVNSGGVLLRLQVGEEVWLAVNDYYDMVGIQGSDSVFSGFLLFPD

B1: Fab fragment of humanized anti-C1q antibody VH3/Vκ3 (Fab)
heavy: QVQLVQSGAELKKPGASVKVSCKSSGYHFTSYWMHWVKQAPGQGLEWIGVIHPNSGSINYNEKFESRVTITVDKSTSTAYMELSSLRSEDTAVYYCAGERDSTEVLPMDYWGQGTTVTVSS
light: DVQITQSPSSLSASLGERATINCRASKSINKYLAWYQQKPGKAPKLLIYSGSTLQSGIPARFSGSGSGTDFTLTISSLEPEDFAMYYCQQHNEYPLTFGQGTKLEIK
notes: also called Fab VH3/Vκ3; Fab-VH3/Vκ3; not shown: CH1 part of the human IgG4 (S241P L248E) constant region left after digestion of the IgG with a Fab Micro Preparation Ki; human kappa light chain constant region
Human C1q [1]
  koff: 6.3e-08 s⁻¹
Human C1q [2]
  Kd: 0.0086 nM
  koff: 9.1e-06 s⁻¹
  kon: 1.1e+06 M⁻¹ s⁻¹
Human C1q [3]
  kon: 130000 M⁻¹ s⁻¹
Mouse C1q [4]
  Kd: 121 nM
Human C1q [5]
  Kd: < 0.192 nM
  koff: < 1e-05 s⁻¹
  kon: 52000 M⁻¹ s⁻¹
Human C1q [6]
  kon: 18000 M⁻¹ s⁻¹
Mouse C1q [7]
  Kd: 126 nM
  koff: 0.056 s⁻¹
  kon: 450000 M⁻¹ s⁻¹
Mouse C1q [8]
  Kd: 123 nM
  koff: 0.032 s⁻¹
  kon: 310000 M⁻¹ s⁻¹
Mouse C1q [9]
  Kd: 748 nM
  koff: 0.0046 s⁻¹
  kon: 6230 M⁻¹ s⁻¹
Human C1q [10]
  Kd: 3.4 nM
Mouse C1q [11]
  Kd: 677 nM
  koff: 0.0043 s⁻¹
  kon: 6500 M⁻¹ s⁻¹
Mouse C1q [12]
  Kd: 607 nM
  koff: 0.0041 s⁻¹
  kon: 6900 M⁻¹ s⁻¹
Human C1q [13]
  Kd: 175 nM
Human C1q [14]
  koff: 2.3e-05 s⁻¹
